Assay results reported in patent US20240199761A1 (AstraZeneca / MedImmune, published 2024).

Tests used:
Human PAD1 = biological target: T1, Human PAD1 (Homo sapiens, UniProt Q9ULC6); experiment: specificity ELISA: biotinylated PAD on a streptavidin plate, detection with anti-human IgG Fc HRP, Binding (RFU); antibody concentration not given
T1 construct: biotinylated, captured on a streptavidin plate; also called biotinylated PAD1
T1 sequence (single chain, looked up): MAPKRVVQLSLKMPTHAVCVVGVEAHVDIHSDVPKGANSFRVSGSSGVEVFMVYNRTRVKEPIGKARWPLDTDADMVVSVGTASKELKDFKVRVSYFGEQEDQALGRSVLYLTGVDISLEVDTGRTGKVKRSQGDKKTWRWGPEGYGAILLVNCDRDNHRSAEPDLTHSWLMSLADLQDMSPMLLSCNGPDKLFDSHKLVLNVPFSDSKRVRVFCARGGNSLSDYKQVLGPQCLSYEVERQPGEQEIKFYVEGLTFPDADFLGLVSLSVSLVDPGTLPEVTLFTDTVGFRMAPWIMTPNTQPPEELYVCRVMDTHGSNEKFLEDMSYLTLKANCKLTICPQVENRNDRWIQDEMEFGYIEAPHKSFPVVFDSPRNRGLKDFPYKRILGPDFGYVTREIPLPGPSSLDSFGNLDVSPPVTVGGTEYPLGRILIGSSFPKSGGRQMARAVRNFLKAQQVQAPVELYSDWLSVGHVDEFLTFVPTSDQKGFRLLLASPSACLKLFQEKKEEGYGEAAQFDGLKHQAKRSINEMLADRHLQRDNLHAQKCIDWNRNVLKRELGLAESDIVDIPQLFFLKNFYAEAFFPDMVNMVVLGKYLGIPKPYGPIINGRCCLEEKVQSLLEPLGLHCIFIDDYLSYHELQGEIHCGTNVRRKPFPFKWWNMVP

Human PAD3 = biological target: T2, Human PAD3 (Homo sapiens, UniProt Q9ULW8); experiment: as above
T2 construct: biotinylated, captured on a streptavidin plate; also called biotinylated PAD3
T2 sequence (single chain, looked up): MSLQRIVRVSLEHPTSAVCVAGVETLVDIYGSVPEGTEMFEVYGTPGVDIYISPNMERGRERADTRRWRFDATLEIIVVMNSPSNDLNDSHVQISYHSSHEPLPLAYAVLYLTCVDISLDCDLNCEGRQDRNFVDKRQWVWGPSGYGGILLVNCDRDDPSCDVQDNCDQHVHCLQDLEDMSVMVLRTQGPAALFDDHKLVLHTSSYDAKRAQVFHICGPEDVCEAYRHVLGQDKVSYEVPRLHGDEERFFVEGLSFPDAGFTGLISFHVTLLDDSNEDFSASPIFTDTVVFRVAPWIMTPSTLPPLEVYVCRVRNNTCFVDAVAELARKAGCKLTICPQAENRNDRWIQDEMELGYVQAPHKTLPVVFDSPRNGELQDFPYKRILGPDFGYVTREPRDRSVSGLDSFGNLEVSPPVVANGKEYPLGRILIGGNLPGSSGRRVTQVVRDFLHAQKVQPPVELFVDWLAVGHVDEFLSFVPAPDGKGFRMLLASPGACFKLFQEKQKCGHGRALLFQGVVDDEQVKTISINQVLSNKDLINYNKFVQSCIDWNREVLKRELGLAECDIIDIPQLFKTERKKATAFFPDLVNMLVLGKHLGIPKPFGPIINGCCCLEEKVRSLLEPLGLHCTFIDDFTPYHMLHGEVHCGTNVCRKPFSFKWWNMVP

[1] = biological target: T3, human PAD2, recombinant, tags at the N-terminus (human, UniProt Q9Y2J8 1-665, enzymatically biotinylated on an Avi-tag where captured on streptavidin); experiment: SPR; biotinylated antibody on C1-streptavidin, PAD2 flowed over
T3 construct: not shown: N-terminal tags incl; Avi-tag

[2] = biological target: T4, cynomolgus PAD2, recombinant, tags at the N-terminus (cynomolgus, UniProt G7NUR0 1-665, enzymatically biotinylated on an Avi-tag where captured on streptavidin); experiment: as above
T4 construct: also called Cyno PAD2; not shown: N-terminal tags incl; Avi-tag

[3] = biological target: T5, mouse PAD2, recombinant, tags at the N-terminus (mouse, UniProt Q08642 1-673, enzymatically biotinylated on an Avi-tag where captured on streptavidin); experiment: as above
T5 construct: not shown: N-terminal tags incl; Avi-tag

[4] = biological target: T3, human PAD2, recombinant, tags at the …; experiment: as above; remark: listed apart in the source
[5] = biological target: T4, cynomolgus PAD2, recombinant, tags at …; experiment: as above; remark: listed apart in the source
[6] = biological target: T5, mouse PAD2, recombinant, tags at the …; experiment: as above; remark: listed apart in the source
recombinant human PAD2 [7] = biological target: T6, recombinant human PAD2 (human, UniProt Q9Y2J8 1-665, enzymatically biotinylated on an Avi-tag (when captured on the SPR chip)); experiment: SPR (Biacore 8K), N-terminally tagged against C-terminally tagged recombinant PAD2
T6 construct: also called hPAD2; Human PAD2 (RD220)

[8] = biological target: T3, human PAD2, recombinant, tags at the …; experiment: SPR; biotinylated PAD2 on C1-streptavidin, antibody flowed over
[9] = biological target: T4, cynomolgus PAD2, recombinant, tags at …; experiment: as above
[10] = biological target: T5, mouse PAD2, recombinant, tags at the …; experiment: as above
[11] = biological target: T3, human PAD2, recombinant, tags at the …; experiment: as above; remark: listed apart in the source
[12] = biological target: T4, cynomolgus PAD2, recombinant, tags at …; experiment: as above; remark: listed apart in the source
[13] = biological target: T5, mouse PAD2, recombinant, tags at the …; experiment: as above; remark: listed apart in the source
recombinant mouse PAD2 = biological target: T7, recombinant mouse PAD2 (mouse, UniProt Q08642 1-673); experiment: ratio of SPR KDs, mouse PAD2 against human PAD2; biotinylated PAD captured on C1-streptavidin, antibody flowed over
T7 construct: Recombinant and tagged

recombinant human PAD2 [14] = biological target: T6, recombinant human PAD2; experiment: specificity ELISA: biotinylated PAD on a streptavidin plate, detection with anti-human IgG Fc HRP, Binding (RFU); antibody concentration not given
recombinant human PAD4 = biological target: T8, recombinant human PAD4 (human, UniProt Q9UM07 1-663, enzymatically biotinylated on an Avi-tag (when captured on the SPR chip)); experiment: as above
T8 construct: also called hPAD4; Human PAD4 (RD223)

[15] = biological target: T9, PAD2 (species not stated) (Homo sapiens (Human), UniProt Q9Y2J8 1-665, Biotinylated in the specificity ELISA. The SPR material was enzymatically biotinylated on an Avi-tag.); experiment: specificity ELISA: biotinylated PAD on a streptavidin plate, detection with anti-human IgG Fc HRP, fluorescence (RFU); antibody concentration not given
T9 construct: Biotinylated in the specificity ELISA; also called biotinylated PAD2; not shown: Avi-tag and any purification tag on the recombinant PAD2

[16] = biological target: T10, PAD4 (species not stated) (Homo sapiens (Human), UniProt Q9UM07 1-663, Biotinylated in the specificity ELISA. The SPR material was enzymatically biotinylated on an Avi-tag.); experiment: as above
T10 construct: Biotinylated in the specificity ELISA; monomer and dimer forms seen in iSCAT; also called biotinylated PAD4; not shown: Avi-tag and any purification tag on the recombinant PAD4

B1: Clone 12 (Bis3, FQQ-YTE; PAD2 Fab, PAD4 scFv) (bispecific antibody, human IgG1, lambda)
heavy: not shown
light: SYVLTQPPSVSVSPGQTASITCSGDKVGDKYVSWYQQKPGQSPVLVIYQDSQRPSGIPERFSGSNSGNTATLTISGTQAMDEADYYCQTWAPDVLLFGSGTKVTVLGQPKAAPSVTLFPPSSEELQANKATLVCLISDFYPGAVTVAWKADSSPVKAGVETTTPSKQSNNKYAASSYLSLTPEQWKSHRSYSCQVTHEGSTVEKTVAPTECS
notes: also called PAD240012
- binding result (Human PAD1): no binding
- binding result (Human PAD3): no binding

B2: Clone 12, Bis3 anti-PAD2 Fab / anti-PAD4 scFv, Fc FQQ-YTE (bispecific antibody, human IgG1, lambda)
heavy: not shown
light: SYVLTQPPSVSVSPGQTASITCSGDKVGDKYVSWYQQKPGQSPVLVIYQDSQRPSGIPERFSGSNSGNTATLTISGTQAMDEADYYCQTWAPDVLLFGSGTKVTVLGQPKAAPSVTLFPPSSEELQANKATLVCLISDFYPGAVTVAWKADSSPVKAGVETTTPSKQSNNKYAASSYLSLTPEQWKSHRSYSCQVTHEGSTVEKTVAPTECS
notes: Bivalent for PAD2 and for PAD4; In the rows marked ^# the antibody was chemically biotinylated; also called PAD240012
- Kd [1]: 0.00676 nM
- koff [1]: 4.05e-05 s⁻¹
- kon [1]: 5.6e+06 M⁻¹ s⁻¹
- Kd [2]: 0.0138 nM
- koff [2]: 5.74e-05 s⁻¹
- kon [2]: 4.19e+06 M⁻¹ s⁻¹
- Kd [3]: 0.0142 nM
- koff [3]: 6.89e-05 s⁻¹
- kon [3]: 4.85e+06 M⁻¹ s⁻¹
- Kd [4]: 0.00676 nM
- Kd [5]: 0.0138 nM
- Kd [6]: 0.0142 nM

B3: Clone 22 (141LO0035 hIgG1 pgl-4), anti-PAD2, as Fab (Fab, V domains shown)
VH: not shown
VL: SYVLTQPPSVSVSPGQTASITCSGDKVGDKYVSWYQQKPGQSPVLVIYQDSQRPSGIPERFSGSNSGNTATLTISGTQAMDEADYYCQTWAPDVLLFGSGTKVTVL
notes: also called Clone 22 (Fab); anti-PAD2 Fab
- fold higher affinity than in the previous assay (Table 69) (recombinant human PAD2 [7]): 10 fold

B4: anti-PAD2 Clone 22 (141LO0035 hIgG1 pgl-4), Fab (Fab, V domains shown)
VH: not shown
VL: SYVLTQPPSVSVSPGQTASITCSGDKVGDKYVSWYQQKPGQSPVLVIYQDSQRPSGIPERFSGSNSGNTATLTISGTQAMDEADYYCQTWAPDVLLFGSGTKVTVL
notes: Tested as Fab; also called Clone 22 (Fab)
- Kd [8]: 0.0131 nM
- koff [8]: 4.77e-05 s⁻¹
- kon [8]: 3.67e+06 M⁻¹ s⁻¹
- Kd [9]: 0.0292 nM
- koff [9]: 7.03e-05 s⁻¹
- kon [9]: 2.39e+06 M⁻¹ s⁻¹
- Kd [10]: 0.131 nM
- koff [10]: 0.000462 s⁻¹
- kon [10]: 3.59e+06 M⁻¹ s⁻¹
- Kd [11]: 0.0131 nM
- Kd [12]: 0.0292 nM
- Kd [13]: 0.131 nM

B5: Clone 22 (Fab) (141LO0035 hIgG1 pgl-4) (Fab, V domains shown)
VH: not shown
VL: SYVLTQPPSVSVSPGQTASITCSGDKVGDKYVSWYQQKPGQSPVLVIYQDSQRPSGIPERFSGSNSGNTATLTISGTQAMDEADYYCQTWAPDVLLFGSGTKVTVL
notes: Tested as a Fab; Only the variable domains are tied to Clone 22; also called anti-PAD2 Fab
- fold difference in KD, mouse/human (recombinant mouse PAD2): 10 fold

B6: R347 Bis3 FQQYTE (antibody, human IgG1, lambda)
light chain: ELVLTQPASVSGSPGQSITISCTGTSSDVGGYNYVSWYQQHPGKAPKLMIYDVSKRPSGVSNRFSGSKSGNTASLTISGLQAEDEADYYCSSYTSSSTLVFGGGTKLTVLGQPKAAPSVTLFPPSSEELQANKATLVCLISDFYPGAVTVAWKADSSPVKAGVETTTPSKQSNNKYAASSYLSLTPEQWKSHRSYSCQVTHEGSTVEKTVAPTECS
heavy chain with C-terminal scFv: EVQLLESGGGLVQPGGSLRLSCTTSGFTFNTYAMSWVRQAPGKGLEWLSGINNNGRTAFYADSVKGRFTISRDNSKNTLYLQINSLRADDTAVYFCAKDVRFIAVPGDSWGQGTLVTVSSASTKGPSVFPLAPSSKSTSGGTAALGCLVKDYFPEPVTVSWNSGALTSGVHTFPAVLQSSGLYSLSSVVTVPSSSLGTQTYICNVNHKPSNTKVDKRVEPKSCDKTHTCPPCPAPEFQGGPSVFLFPPKPKDTLYITREPEVTCVVVDVSHEDPEVKFNWYVDGVEVHNAKTKPREEQYNSTYRVVSVLTVLHQDWLNGKEYKCQVSNKALPAPIEKTISKAKGQPREPQVYTLPPSREEMTKNQVSLTCLVKGFYPSDIAVEWESNGQPENNYKTTPPVLDSDGSFFLYSKLTVDKSRWQQGNVFSCSVMHEALHNHYTQKSLSLSPGKGGGGSGGGGSEVQLLESGGGLVQPGGSLRLSCTTSGFTFNTYAMSWVRQAPGKGLEWLSGINNNGRTAFYADSVKGRFTISRDNSKNTLYLQINSLRADDTAVYFCAKDVRFIAVPGDSWGQGTLVTVSSGGGGSGGGGSGGGGSGGGGSELVLTQPASVSGSPGQSITISCTGTSSDVGGYNYVSWYQQHPGKAPKLMIYDVSKRPSGVSNRFSGSKSGNTASLTISGLQAEDEADYYCSSYTSSSTLVFGGGTKLTVL
notes: also called Bis3 control (R347)
- binding result (recombinant human PAD2 [14]): no binding
- binding result (recombinant human PAD4): no binding
- binding result [15]: no binding
- binding result [16]: no binding
